Experimental data reported in paper PMC8448959 (ACS chemical biology, 2021).
Like-named read-outs stand apart in the source and are kept apart here. Square brackets hold non-standard residues; d marks the D form. Ends that are not written are not given here. * marks the point of attachment. Lys(Et,iPr) = CCN(CCCC[C@H](N)C(=O)O)C(C)C; 4‑piperidine cap = not defined here; cyclohexyl = C1CCC(*)CC1

T1: MPP8 chromodomain (residues 55-116), N-terminal His-tag (UniProt Q99549-1 55-116)
T1 sequence (looked up): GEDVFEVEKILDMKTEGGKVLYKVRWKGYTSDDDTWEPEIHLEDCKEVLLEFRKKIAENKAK

T2: CDYL2 chromodomain (residues 1-75), C-terminal His-tag (UniProt Q8N8U2 1-75)
T2 sequence (looked up): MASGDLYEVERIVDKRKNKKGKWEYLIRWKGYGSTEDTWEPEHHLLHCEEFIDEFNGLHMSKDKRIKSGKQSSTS

T3: CBX7 chromodomain (residues 8-62), C-terminal His-tag (UniProt O95931 8-62)
T3 sequence (looked up): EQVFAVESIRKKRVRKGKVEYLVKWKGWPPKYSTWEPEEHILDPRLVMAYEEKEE


Key:
Assay in all cases: AlphaScreen or HTRF
[1] = target: T1, MPP8 chromodomain (residues 55-116), …
[2] = target: T2, CDYL2 chromodomain (residues 1-75), …
[3] = target: T3, CBX7 chromodomain (residues 8-62), …
[4] = target: T1, MPP8 chromodomain (residues 55-116), …; remark: listed apart in the source
[5] = target: T3, CBX7 chromodomain (residues 8-62), …; remark: listed apart in the source

IC50 [1] [nM]	IC50 [2] [nM]	IC50 [3] [nM]	IC50 [4] [nM]	IC50 [5] [nM]	Binder
700	200	> 30000			{4‑piperidine cap}-FAFKS-OMe (reading uncertain; also: lysine mimetic with a piperidine substituent) [UNC6127]
			900	6000	FAF[Lys(Et,iPr)]S-OMe (not fully specified (N-terminus); also: N-terminal cap R1 not given here) [UNC6263]
450	90	> 30000			FAFKS (N-terminal 4-piperidine cap; lysine mimetic with a methyl-cyclopentyl amine; C-terminal methyl ester) [UNC6216]
500	100	> 30000			{4‑piperidine cap}-FAFKS-OMe (reading uncertain; also: Lys4: lysine mimetic with a tetrahydropyran substituent) [UNC6218]
1400	700	> 30000			{4‑piperidine cap}-FAFKS-OMe (reading uncertain; also: Lys4: lysine mimetic with a pyrroline substituent) [UNC6262]
			400	7000	FAF[Lys(Et,iPr)]S-OMe (not fully specified (N-terminus); also: N-terminal cap R1 not given here) [UNC6257]
800	200	> 30000			FAFKS (N-terminal 4-piperidine cap; lysine mimetic with increased steric bulk on the lysine amine; C-terminal methyl ester) [UNC6254]
400	70	> 30000			{4‑piperidine cap}-FAFK(cyclohexyl)S-OMe (reading uncertain; also: Lys4: lysine mimetic with a cyclohexyl substituent) [UNC6217]
